Patent US11667688B2, “Glucagon derivative and a composition comprising a long acting conjugate of the same” (HANMI PHARM. CO., LTD., priority 2015, dated 2023)
Bridge positions count the residues as written; N and C are the ends. Square brackets hold non-standard residues; d marks the D form. Ends that are not written are not given here. Aib = CC(C)(N)C(=O)O

target: T1, human glucagon receptors (Homo sapiens, UniProt P47871); assay: cAMP activity of glucagon derivatives in CHO cell line transfected with human glucagon receptor (LANCE cAMP kit); type: cell-based; settings: cAMP EC50 compared with that of native glucagon; CHO cells with human glucagon receptor
T1 construct: a region corresponding to Open Reading Frame (ORF) in the cDNA; expressed in transfected cells
T1 sequence (P47871 26-477): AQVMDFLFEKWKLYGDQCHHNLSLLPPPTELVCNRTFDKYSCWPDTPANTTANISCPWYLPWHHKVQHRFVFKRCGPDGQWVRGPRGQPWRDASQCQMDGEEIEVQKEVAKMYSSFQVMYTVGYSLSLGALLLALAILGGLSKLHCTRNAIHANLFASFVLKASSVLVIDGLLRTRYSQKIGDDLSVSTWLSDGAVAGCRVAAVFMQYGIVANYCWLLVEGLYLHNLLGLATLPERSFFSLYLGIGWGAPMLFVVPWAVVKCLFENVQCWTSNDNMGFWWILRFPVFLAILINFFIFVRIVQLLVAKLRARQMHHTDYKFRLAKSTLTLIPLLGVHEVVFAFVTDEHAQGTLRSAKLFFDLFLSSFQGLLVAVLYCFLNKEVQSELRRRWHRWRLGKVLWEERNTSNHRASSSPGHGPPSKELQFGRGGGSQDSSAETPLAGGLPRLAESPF
Procedure: PCR was performed using a region corresponding to Open Reading Frame (ORF) in the cDNA (OriGene Technologies, Inc., USA) of human glucagon receptor gene as a template along with the following forward and reverse primers (SEQ ID NOS: 47 and 48, respectively), which include each of the EcoRI and XhoI restriction sites.
The PCR product was cloned into a known animal cell expression vector, x0GC/dhfr, to prepare a recombinant vector x0GC/GCGR.
CHO DG44 cell line cultured in DMEM/F12 (10% FBS) medium was transfected with the recombinant vector x0GC/GCGR using LIPOFECTAMINE®, and cultured in a selection medium containing G418 (1 mg/mL) and methotraxate (10 nM).
Specifically, the transfected cell line was subcultured 3 to 4 times a week, aliquoted into a 384-well plate in an amount of 6×10^3 cell lines/well, and cultured for 24 hours. Native glucagon and glucagon derivatives were suspended in Hank's balanced salt solution (HBSS) buffer containing 0.5 mM of 3-isobutyl-1-methylxanthine (IBMX), 0.1% bovine serum albumin (BSA), and 5 mM 4-(2-hydroxyethyl)-1-piperazineethanesulfonic acid (HEPES) with the culture cells, at concentrations of 200 nM and 1600 nM, respectively, continuously subjected into a 4-fold dilution 10 times, applied to a cAMP assay kit (LANCE cAMP 384 kit, PerkinElmer), and added to the cultured cells, and their fluorescence value was measured.

First: -SQGTFTSDYSKYLDECRAKEFVQWLMNT (bridge 15-19; also: name begins with '-': N-terminal residue before chain not given here) [SEQ ID NO: 32, glucagon derivative, no residue at position 1]
Second: HSQGTFTSDYSKYLDCDRAQDFVQWLMNT (glucagon derivative) [SEQ ID NO: 2]
The “In vitro Activity (Relative Activity of SEQ ID NO: 1, %)” value of the first is higher: 0.7% for the first, 0.6% for the second.

Compared with “HSQGTFTSDYSKYLDCERAQDFVQWLMNT (glucagon derivative) [SEQ ID NO: 3]”, “HSQGTFTSDYSKYLDSCEAQDFVQWLMNT (glucagon derivative) [SEQ ID NO: 5]” is lower in “In vitro Activity (Relative Activity of SEQ ID NO: 1, %)” value: 6.1% for the first, 0.3% for the second.

Compared with “WXQGTFTSDYSKCLDERRAKDFVQWLMNT (W[Aib]QGTFTSDYSKCLDERRAKDFVQWLMNT; bridge 16-20) [SEQ ID NO: 30, glucagon derivative, X = Aib]”, “WXQGTFTSDYSKYCDERRAKEFVQWLMNT (W[Aib]QGTFTSDYSKYCDERRAKEFVQWLMNT; bridge 16-20) [SEQ ID NO: 34, glucagon derivative, X = Aib]” is lower in “In vitro Activity (Relative Activity of SEQ ID NO: 1, %)” value: 0.3% for the first, 0.2% for the second.

Going from “WXQGTFTSDYSKYLDECRAKDFVQWLMNT (W[Aib]QGTFTSDYSKYLDECRAKDFVQWLMNT; bridge 16-20) [SEQ ID NO: 26, glucagon derivative, X = Aib]” to “YXQGTFCSDYSKYLDERRAKDFVQWLMNT (Y[Aib]QGTFCSDYSKYLDERRAKDFVQWLMNT; bridge 16-20) [SEQ ID NO: 41, glucagon derivative, X = Aib]”, the “In vitro Activity (Relative Activity of SEQ ID NO: 1, %)” value rises from 1.0% to 45.2%.

Going from “YXQGTFCSDYSKYLDERRAKEFVQWLMNT (Y[Aib]QGTFCSDYSKYLDERRAKEFVQWLMNT; bridge 16-20) [SEQ ID NO: 38, glucagon derivative, X = Aib]” to “YXQGTFCSDYSKYLDSRRAQDFVQWLMNT (Y[Aib]QGTFCSDYSKYLDSRRAQDFVQWLMNT) [SEQ ID NO: 42, glucagon derivative, X = Aib]”, the “In vitro Activity (Relative Activity of SEQ ID NO: 1, %)” value falls from 167.3% to 37.9%.

Going from “YXQGTFTSDCSKYLDERRAKEFVQWLMNT (Y[Aib]QGTFTSDCSKYLDERRAKEFVQWLMNT; bridge 16-20) [SEQ ID NO: 36, glucagon derivative, X = Aib]” to “YXQGTFTSDCSKYLDSRRAQDFVQWLMNT (Y[Aib]QGTFTSDCSKYLDSRRAQDFVQWLMNT) [SEQ ID NO: 43, glucagon derivative, X = Aib]”, the “In vitro Activity (Relative Activity of SEQ ID NO: 1, %)” value falls from 9.9% to 1.6%.

Compared with “YXQGTFTSDYSCYLDSRRAQDFVQWLMNT (Y[Aib]QGTFTSDYSCYLDSRRAQDFVQWLMNT) [SEQ ID NO: 13, glucagon derivative, X = Aib]”, “YXQGTFTSDYSKCLDEKRAKEFVQWLMNT (Y[Aib]QGTFTSDYSKCLDEKRAKEFVQWLMNT; bridge 16-20) [SEQ ID NO: 24, glucagon derivative, X = Aib]” is higher in “In vitro Activity (Relative Activity of SEQ ID NO: 1, %)” value: 5.2% for the first, 58.0% for the second.

Going from “YXQGTFTSDYSKCLDERRAKDFVQWLMNT (Y[Aib]QGTFTSDYSKCLDERRAKDFVQWLMNT; bridge 16-20) [SEQ ID NO: 29, glucagon derivative, X = Aib]” to “YXQGTFTSDYSKYCDEKRAKEFVQWLMNT (Y[Aib]QGTFTSDYSKYCDEKRAKEFVQWLMNT; bridge 16-20) [SEQ ID NO: 23, glucagon derivative, X = Aib]”, the “In vitro Activity (Relative Activity of SEQ ID NO: 1, %)” value rises from 61.3% to 76.8%.

Compared with “YXQGTFTSDYSKYCDERRAKEFVQWLMNT (Y[Aib]QGTFTSDYSKYCDERRAKEFVQWLMNT; bridge 16-20) [SEQ ID NO: 35, glucagon derivative, X = Aib]”, “YXQGTFTSDYSKYLCEKRAKEFVQWLMNT (Y[Aib]QGTFTSDYSKYLCEKRAKEFVQWLMNT; bridge 16-20) [SEQ ID NO: 19, glucagon derivative, X = Aib]” is lower in “In vitro Activity (Relative Activity of SEQ ID NO: 1, %)” value: 17.7% for the first, 12.1% for the second.

First: YXQGTFTSDYSKYLCEKRAQDFVVWLMNT (Y[Aib]QGTFTSDYSKYLCEKRAQDFVVWLMNT) [SEQ ID NO: 15, glucagon derivative, X = Aib]
Second: YXQGTFTSDYSKYLDCKRAKEFVQWLMNT (Y[Aib]QGTFTSDYSKYLDCKRAKEFVQWLMNT; bridge 17-21) [SEQ ID NO: 31, glucagon derivative, X = Aib]
The “In vitro Activity (Relative Activity of SEQ ID NO: 1, %)” value of the first is lower: 1.1% for the first, 6.3% for the second.

First: YXQGTFTSDYSKYLDCKRAKEFVQWLMNT [SEQ ID NO: 14] (Y[Aib]QGTFTSDYSKYLDCKRAKEFVQWLMNT; not fully specified) [glucagon derivative, X = Aib]
Second: YXQGTFTSDYSKYLDCRRAQVFVQWLMRT (Y[Aib]QGTFTSDYSKYLDCRRAQVFVQWLMRT) [SEQ ID NO: 16, glucagon derivative, X = Aib]
The “In vitro Activity (Relative Activity of SEQ ID NO: 1, %)” value of the first is higher: 18.1% for the first, 4.2% for the second.

Compared with “YXQGTFTSDYSKYLDCVRAQDFVQWLMRT (Y[Aib]QGTFTSDYSKYLDCVRAQDFVQWLMRT) [SEQ ID NO: 17, glucagon derivative, X = Aib]”, “YXQGTFTSDYSKYLDECRAKEFVQWLMNT (Y[Aib]QGTFTSDYSKYLDECRAKEFVQWLMNT; bridge 16-20) [SEQ ID NO: 20, glucagon derivative, X = Aib]” is higher in “In vitro Activity (Relative Activity of SEQ ID NO: 1, %)” value: 23.2% for the first, 299.7% for the second.

Going from “YXQGTFTSDYSKYLDEKCAKEFVQWLMNT [SEQ ID NO: 11] (Y[Aib]QGTFTSDYSKYLDEKCAKEFVQWLMNT; not fully specified) [glucagon derivative, X = Aib]” to “YXQGTFTSDYSKYLDEKCAKEFVQWLMNT [SEQ ID NO: 21] (Y[Aib]QGTFTSDYSKYLDEKCAKEFVQWLMNT; bridge 16-20) [glucagon derivative, X = Aib]”, the “In vitro Activity (Relative Activity of SEQ ID NO: 1, %)” value rises from 4.6% to 57.8%.

For “YXQGTFTSDYSKYLDEKRAKCFVQWLMNT (Y[Aib]QGTFTSDYSKYLDEKRAKCFVQWLMNT; bridge 16-20) [SEQ ID NO: 25, glucagon derivative, X = Aib]”, the “In vitro Activity (Relative Activity of SEQ ID NO: 1, %)” value was 46.9%.

For “HSQGTFTSDYSKYLDSCDAQDFVQWLMNT (glucagon derivative) [SEQ ID NO: 4]”, the “In vitro Activity (Relative Activity of SEQ ID NO: 1, %)” value was less than 0.1%.
With “HSQGTFTSDYSKYLDSCEADDFVQWLMNT (glucagon derivative) [SEQ ID NO: 6]” the “In vitro Activity (Relative Activity of SEQ ID NO: 1, %)” value was less than 0.1%.
With “WXQGTFVSDYSKYLDECRAKDFVQWLMNT (W[Aib]QGTFVSDYSKYLDECRAKDFVQWLMNT; bridge 16-20) [SEQ ID NO: 28, glucagon derivative, X = Aib]” the “In vitro Activity (Relative Activity of SEQ ID NO: 1, %)” value was less than 0.1%.
For “YSQGTFTSDYSKYLDSCEADDFVQWLMNT (glucagon derivative) [SEQ ID NO: 7]”, the “In vitro Activity (Relative Activity of SEQ ID NO: 1, %)” value was less than 0.1%.
